Results on 83 variants are retold here after the RNAGym collection of RNA variant scans (doi:10.1101/gr.219683.116).

To fix the notation:
B1: mRNA-splicing (parent)
chain: AGUUGCUGCUGGGAGCUCCAGCACAGUGAAAUGGACAGAAGGGCAGAGCAA

In this data set the parent is B1. The data set can be described thus: exon inclusion enrichment index; higher = more inclusion; WT1 exon 5 minigene, HEK293.
As to G5C C6G U7C U10C G42A G43C, the “exon inclusion enrichment index” value turned out to be 5.39.

For the variant G5C C6G U7C U10C G42A G43A, the “exon inclusion enrichment index” value came to 4.65.

As for G5C C6G U7C U10C G42A G43U, the “exon inclusion enrichment index” value came out at 5.36.

For G5C C6G U7C U10C C22U A23G, the “exon inclusion enrichment index” value worked out at 3.6.

G5C C6G U7C U10C C22U A23C: the “exon inclusion enrichment index” value was determined as 2.02.

G5C C6G U7C U10C C22U A23U: the “exon inclusion enrichment index” value worked out at 2.76.

For the variant G5C C6G U7C U10C A30U, the “exon inclusion enrichment index” value came to 3.07.

Take G5C C6G U7C U10C A30G: the “exon inclusion enrichment index” value is 3.89.

Consider G5C C6G U7C U10C G13C, for which the “exon inclusion enrichment index” value is 1.53.

G5C C6G U7C U10C G13A: the “exon inclusion enrichment index” value is 3.34.

G5C C6G U7C U10C G13U: the “exon inclusion enrichment index” value is 0.534.

Take G5C C6G U7C U10C A30U A31C: the “exon inclusion enrichment index” value came to 3.11.

In the case of G5C C6G U7C U10C A30U A31U, the “exon inclusion enrichment index” value was found to be 3.18.

On to G5C C6G U7C U10C A30U A31G, for which the “exon inclusion enrichment index” value worked out at 3.75.

As for G5C C6G U7C U10C G28U A29C, the “exon inclusion enrichment index” value came to 2.89.

On to G5C C6G U7C U10C G28U A29G, for which the “exon inclusion enrichment index” value amounted to 3.24.

In the case of G5C C6G U7C U10C G28U A29U, the “exon inclusion enrichment index” value came out at 1.08.

For G5C C6G U7C U10C C18G C19G, the “exon inclusion enrichment index” value stood at 4.32.

With G5C C6G U7C U10C C18G C19U, the “exon inclusion enrichment index” value turned out to be 1.44.

G5C C6G U7C U10C C18G C19A: the “exon inclusion enrichment index” value was 4.24.

For G5C C6G U7C U10C C36U A37C, the “exon inclusion enrichment index” value stood at 2.78.

For G5C C6G U7C U10C C36U A37G, the “exon inclusion enrichment index” value came to 2.77.

As for G5C C6G U7C U10C C36U A37U, the “exon inclusion enrichment index” value was 2.2.

For the variant G5C C6G U7C U10C C44A, the “exon inclusion enrichment index” value came out at 4.17.

Take G5C C6G U7C U10C C44U: the “exon inclusion enrichment index” value worked out at 1.47.

Turning to G5C C6G U7C U10C C44G, the “exon inclusion enrichment index” value was 4.42.

As to G5C C6G U7C U10C G21A, the “exon inclusion enrichment index” value amounted to 2.93.

On to G5C C6G U7C U10C G21C, for which the “exon inclusion enrichment index” value was found to be 3.41.

Consider G5C C6G U7C U10C G21U, for which the “exon inclusion enrichment index” value turned out to be 2.48.

Regarding G5C C6G U7C U10C C16U, the “exon inclusion enrichment index” value turned out to be 4.22.

In the case of G5C C6G U7C U10C C16G, the “exon inclusion enrichment index” value was found to be 2.97.

G5C C6G U7C U10C C16A: the “exon inclusion enrichment index” value came to 4.33.

As for G5C C6G U7C U10C A40C G41C, the “exon inclusion enrichment index” value was determined as 3.53.

For G5C C6G U7C U10C A40C G41A, the “exon inclusion enrichment index” value is 1.9.

For the variant G5C C6G U7C U10C A40C G41U, the “exon inclusion enrichment index” value is 1.83.

Turning to G5C C6G U7C U10C C36A A37C, the “exon inclusion enrichment index” value was found to be 3.59.

As to G5C C6G U7C U10C C36A A37U, the “exon inclusion enrichment index” value was determined as 2.07.

G5C C6G U7C U10C C36A A37G: the “exon inclusion enrichment index” value stood at 2.14.

For G5C C6G U7C U10C C16U U17A, the “exon inclusion enrichment index” value was 3.78.

Turning to G5C C6G U7C U10C C16U U17C, the “exon inclusion enrichment index” value stood at 2.87.

As for G5C C6G U7C U10C C16U U17G, the “exon inclusion enrichment index” value stood at 3.07.

As for G5C C6G U7C U10C C19G A20U, the “exon inclusion enrichment index” value was 3.16.

On to G5C C6G U7C U10C C19G A20G, for which the “exon inclusion enrichment index” value turned out to be 2.13.

Regarding G5C C6G U7C U10C C19G A20C, the “exon inclusion enrichment index” value is 2.89.

As to G5C C6G U7C U10C A35U C36A, the “exon inclusion enrichment index” value was found to be 0.0112.

With G5C C6G U7C U10C A35U C36G, the “exon inclusion enrichment index” value amounted to 0.445.

Turning to G5C C6G U7C U10C A35U C36U, the “exon inclusion enrichment index” value is 0.0671.

As for G5C C6G U7C U10C G34C A35G, the “exon inclusion enrichment index” value was 2.84.

For G5C C6G U7C U10C G34C A35C, the “exon inclusion enrichment index” value turned out to be 0.321.

For G5C C6G U7C U10C G34C A35U, the “exon inclusion enrichment index” value is 1.1.

For G5C C6G U7C U10C G34U A35C, the “exon inclusion enrichment index” value worked out at 1.66.

For G5C C6G U7C U10C G34U A35U, the “exon inclusion enrichment index” value was determined as 1.2.

G5C C6G U7C U10C G34U A35G: the “exon inclusion enrichment index” value is 1.24.

Turning to G5C C6G U7C U10C G12C G13C, the “exon inclusion enrichment index” value is 0.519.

G5C C6G U7C U10C G12C G13A: the “exon inclusion enrichment index” value amounted to 0.8.

As to G5C C6G U7C U10C G12C G13U, the “exon inclusion enrichment index” value was found to be 0.128.

Regarding G5C C6G U7C U10C G21U C22U, the “exon inclusion enrichment index” value came out at 1.36.

For the variant G5C C6G U7C U10C G21U C22G, the “exon inclusion enrichment index” value was determined as 3.57.

As to G5C C6G U7C U10C G21U C22A, the “exon inclusion enrichment index” value was 1.73.

With G5C C6G U7C U10C C24A A25G, the “exon inclusion enrichment index” value turned out to be 3.65.

For the variant G5C C6G U7C U10C C24A A25U, the “exon inclusion enrichment index” value is 2.85.

G5C C6G U7C U10C C24A A25C: the “exon inclusion enrichment index” value was determined as 4.48.

For G5C C6G U7C U10C G13U A14C, the “exon inclusion enrichment index” value turned out to be 1.67.

For G5C C6G U7C U10C G13U A14U, the “exon inclusion enrichment index” value was found to be 1.35.

With G5C C6G U7C U10C G13U A14G, the “exon inclusion enrichment index” value was found to be 1.28.

As for G5C C6G U7C U10C G38C, the “exon inclusion enrichment index” value is 2.56.

As to G5C C6G U7C U10C G38A, the “exon inclusion enrichment index” value was 2.05.

Consider G5C C6G U7C U10C G38U, for which the “exon inclusion enrichment index” value was 1.34.

As to G5C C6G U7C U10C G38C A39C, the “exon inclusion enrichment index” value stood at 2.86.

Regarding G5C C6G U7C U10C G38C A39G, the “exon inclusion enrichment index” value came out at 2.71.

In the case of G5C C6G U7C U10C G38C A39U, the “exon inclusion enrichment index” value turned out to be 0.532.

For the variant G5C C6G U7C U10C A40G G41C, the “exon inclusion enrichment index” value turned out to be 3.83.

As for G5C C6G U7C U10C A40G G41U, the “exon inclusion enrichment index” value is 3.4.

Take G5C C6G U7C U10C A40G G41A: the “exon inclusion enrichment index” value was 1.99.

With G5C C6G U7C U10C G26C U27G, the “exon inclusion enrichment index” value turned out to be 4.43.

G5C C6G U7C U10C G26C U27C: the “exon inclusion enrichment index” value was determined as 4.24.

In the case of G5C C6G U7C U10C G26C U27A, the “exon inclusion enrichment index” value worked out at 3.33.

For G5C C6G U7C U10C G38A A39U, the “exon inclusion enrichment index” value stood at 0.365.

As for G5C C6G U7C U10C G38A A39G, the “exon inclusion enrichment index” value turned out to be 2.72.

Consider G5C C6G U7C U10C G38A A39C, for which the “exon inclusion enrichment index” value was found to be 2.65.

As for G5C C6G U7C U10C G28C A29G, the “exon inclusion enrichment index” value came out at 4.75.

Take G5C C6G U7C U10C G28C A29C: the “exon inclusion enrichment index” value came to 2.81.

For the variant G5C C6G U7C U10C G28C A29U, the “exon inclusion enrichment index” value worked out at 2.35.
